In data set [1] the target is δ25-60(Y) peptide (regions B+C of the HDAg multimer-forming domain, with C-terminal tyrosine) (hepatitis delta virus (American strain)). As to the kind of experiment: CD spectroscopy in PBS at 37° C.
The target of data set [2] is δ12-49 peptide (regions A+B of the HDAg multimer-forming domain) (hepatitis delta virus (American strain)). The experiment in a line: CD spectroscopy in PBS at 37° C.
Data set [3] concerns the molecule itself. The experiment in a line: glutaraldehyde cross-linking, MALDI-TOF mass spectrometry.

On to “δ25-60(Y) peptide (regions B+C of the HDAg multimer-forming domain, with C-terminal tyrosine)”, for which the [θ222]/[θ208] ratio (indicator of coiled-coil formation) in data set [1] came out at 0.76. GREDILEQWVSGRKKLEELERDLRKLKKKIKKLEEDNP [δ12-49 peptide (regions A+B of the HDAg multimer-forming domain)]: in data set [2], the [θ222]/[θ208] ratio (indicator of coiled-coil formation) amounted to 0.79.

B1: recombinant small delta antigen (r-HDAg-S), full length, expressed in E. coli from plasmid pR5δV5 (other)
chain: SRSERRKDRGGREDILEQWVSGRKKLEELERDLRKLKKKIKKLEEDNPWLGNIKGIIGKKDKDGEGAPPAKKLRMDQMEIDAGPRKRPLRGGFTDKERQDHRRRKALENKRKQLSSGGKSLSREEEEELKRLTEEDEKRERRIAGPSVGGVNPLEGGSRGAPGGGFVPSMQGVPESPFARTGEGLDIRGSQGFP
notes: also called r-δAg-S; rδAg-S
With B1, the “ratio of the masses of the cross-linked species to the monomer” value in data set [3] was 8.1.

Source of the values: patent publication US6844171 (Harvard, dated 2005).
